This passage reports Kd results from article PMC8020655.

The experiment addresses His6-PopA_(R357G) labelled with Atto-488 (Caulobacter crescentus). In words: MST.

“His6-SmrF (from UniProt A0A0H3C860 1-122) (natural protein)” gave a Kd of 5.1 µM.

As usually defined, the Kd is a measure of binding affinity in units of concentration. Low values mean a tighter complex, high ones a looser complex.
